The assay has as its target EphrinA2 (EphA2) receptor tyrosine kinase (human (endogenous in HFF)) (UniProt P29317). Put plainly: co-IP; lysates of c-Cbl siRNA-transfected HFF cells infected with KSHV for 5 min; IP with anti-EphA2 antibody, Western blot for clathrin; compared with control siRNA cells.

Take “clathrin heavy chain (from UniProt Q00610 1-1675) (natural protein)”: the fold reduction of the co-IP in c-Cbl siRNA cells against control siRNA cells was 8 fold.

For the origin of these results see paper PMC3715429.
